Source: patent US20250276075A1, “METHODS OF TREATING AXL-EXPRESSING CANCERS WITH ANTI-AXL ANTIBODIES, ANTIBODY FRAGMENTS AND THEIR IMMUNOCONJUGATES” (BIOATLA, INC., priority 2020, published 2025)
Numbering of substitutions follows the chain as printed. Numbers in names are those of the source.

Experiments:
[1] = target: T1, Axl (Homo sapiens, UniProt P30530); assay: Affinity ELISA of CPE mutant antibodies for binding to Axl at pH 6.0 over pH 7.4; conditions: for Affinity ELISA CPE mutant ratio (1:3, pH 6.0/7.4): 1:3 dilution; for Affinity ELISA CPE mutant ratio (1:9, pH 6.0/7.4): 1:9 dilution
T1 sequence (P30530 26-451 limits assumed): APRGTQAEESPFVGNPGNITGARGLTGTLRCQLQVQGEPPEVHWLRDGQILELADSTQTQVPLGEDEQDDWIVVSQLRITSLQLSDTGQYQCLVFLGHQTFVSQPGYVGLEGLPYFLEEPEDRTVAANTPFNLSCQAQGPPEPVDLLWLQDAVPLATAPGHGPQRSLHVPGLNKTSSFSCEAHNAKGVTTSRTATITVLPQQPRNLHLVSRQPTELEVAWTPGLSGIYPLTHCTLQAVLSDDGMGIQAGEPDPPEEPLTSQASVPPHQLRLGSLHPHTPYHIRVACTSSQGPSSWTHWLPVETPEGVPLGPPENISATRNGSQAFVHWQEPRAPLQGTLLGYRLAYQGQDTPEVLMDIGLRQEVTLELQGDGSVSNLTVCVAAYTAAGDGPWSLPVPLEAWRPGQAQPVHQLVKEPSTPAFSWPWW
Excerpt: The DNA encoding the wild-type antibody was evolved to generate a mutant antibody library using Comprehensive Positional Evolution (CPE), which each position in the template antibody is randomized one at a time. Each mutant antibody in the library has only one single point mutation. The mutant antibodies in the library were generated by simultaneously screening for selective binding affinity to Axl at pH 6.0 over pH 7.4 by ELISA. Two mutant antibody dilutions were used: 1:3 and 1:9 dilutions. The mutant antibodies that have at least 1.5 ratio of binding affinity at pH 6.0 to at pH 7.4 under either 1:3 or 1:9 dilution are selected as conditionally active antibodies, with the single point mutations indicated in each of the heavy chain and light chain variable region (Tables 1 and 2).
A wild-type antibody to Axl was selected as the template antibody (with a heavy chain variable region of 063-hum10F10-HC in FIG. 1A and a light chain variable region of […]). The DNA encoding the wild-type antibody was evolved to generate a mutant antibody library using Comprehensive Positional Evolution (CPE), a method by which each position in the template antibody is randomized one at a time. Each mutant antibody in the library has only one single point mutation. The mutant antibodies in the library were generated by simultaneously screening for selective binding affinity to Axl at pH 6.0 over pH 7.4 as determined by ELISA.
Simultaneously, the expression level of the mutant antibodies was also optimized for the purpose of higher fields in a manufacturing process. The screening was done in serum using a FLAG tag because there were human antibodies in the serum which might cause false positives for the screening. The screening buffer was a carbonate buffer (Krebs buffer with ringer-standard buffer but different from PBS). […] Some of the selected mutant antibodies (scFv) were represented in FIG. 2 with their higher activity at pH 6.0 than at pH 7.4, while their activity ratios between pH 6.0 to pH 7.4 were at least 11 fold (FIG. 3).

[2] = target: Axl (UniProt P30530); assay: ELISA, 1:9 dilution
[3] = target: Axl (UniProt P30530); assay: ELISA, 1:3 dilution
[4] = light chain variable region mutants
[5] = heavy chain variable region mutants

B1: LC-A051N (antibody, V domains shown)
VH: EVQLVQSGAEVKKPGATVKISCKVSGYSFTGHTMNWIRQPPGKGLEWIGLIKPSNGGTSYNQKFKGRVTISADKSISTAYLQWSSLKASDTAMYYCAHGHYESYFAMDYWGQGTLVTVSS
VL: DIQMTQSPSSLSASVGDRVTITCKASQDVSSAVAWYQQKPGQAPRLLIYWNSTRHTGVPSRFSGSGSGTEFTLTISSLQPDDFATYYCQEHFSTPLTFGQGTKVEIK
[1]; [4]
  Affinity ELISA CPE mutant ratio (1:3, pH 6.0/7.4): 1.412
  Affinity ELISA CPE mutant ratio (1:9, pH 6.0/7.4): 2.200
[2]
  Affinity ELISA CPE mutant ratio (1:9, pH 6.0/7.4): 2.2
[3]
  Affinity ELISA CPE mutant ratio (1:3, pH 6.0/7.4): 1.41

B2: HC-E102R (antibody, V domains shown)
VH: B1 VH with E102R
VL: B1 VL with N51A
[1]; [5]
  Affinity ELISA CPE mutant ratio (1:3, pH 6.0/7.4): 3.701
  Affinity ELISA CPE mutant ratio (1:9, pH 6.0/7.4): 3.416
[2]
  Affinity ELISA CPE mutant ratio (1:9, pH 6.0/7.4): 3.42
[3]
  Affinity ELISA CPE mutant ratio (1:3, pH 6.0/7.4): 3.7

B3: LC-P095K (antibody, V domains shown)
VH: B1 VH
VL: B1 VL with N51A, P95K
[1]; [4]
  Affinity ELISA CPE mutant ratio (1:3, pH 6.0/7.4): 3.840
  Affinity ELISA CPE mutant ratio (1:9, pH 6.0/7.4): 3.468
[2]
  Affinity ELISA CPE mutant ratio (1:9, pH 6.0/7.4): 3.47
[3]
  Affinity ELISA CPE mutant ratio (1:3, pH 6.0/7.4): 3.84

B4: LC-L096R (antibody, V domains shown)
VH: B1 VH
VL: B1 VL with N51A, L96R
[1]; [4]
  Affinity ELISA CPE mutant ratio (1:3, pH 6.0/7.4): 2.876
  Affinity ELISA CPE mutant ratio (1:9, pH 6.0/7.4): 2.176
[2]
  Affinity ELISA CPE mutant ratio (1:9, pH 6.0/7.4): 2.18
[3]
  Affinity ELISA CPE mutant ratio (1:3, pH 6.0/7.4): 2.88

B5: LC-P095A (antibody, V domains shown)
VH: B1 VH
VL: B1 VL with N51A, P95A
[1]; [4]
  Affinity ELISA CPE mutant ratio (1:3, pH 6.0/7.4): 2.523
  Affinity ELISA CPE mutant ratio (1:9, pH 6.0/7.4): 2.987
[2]
  Affinity ELISA CPE mutant ratio (1:9, pH 6.0/7.4): 2.99
[3]
  Affinity ELISA CPE mutant ratio (1:3, pH 6.0/7.4): 2.52

B6: LC-P095V (antibody, V domains shown)
VH: B1 VH
VL: B1 VL with N51A, P95V
[1]; [4]
  Affinity ELISA CPE mutant ratio (1:3, pH 6.0/7.4): 1.871
  Affinity ELISA CPE mutant ratio (1:9, pH 6.0/7.4): 2.132
[2]
  Affinity ELISA CPE mutant ratio (1:9, pH 6.0/7.4): 2.13
[3]
  Affinity ELISA CPE mutant ratio (1:3, pH 6.0/7.4): 1.87

B7: LC-P095T (antibody, V domains shown)
VH: B1 VH
VL: B1 VL with N51A, P95T
[1]; [4]
  Affinity ELISA CPE mutant ratio (1:3, pH 6.0/7.4): 2.497
  Affinity ELISA CPE mutant ratio (1:9, pH 6.0/7.4): 2.086
[2]
  Affinity ELISA CPE mutant ratio (1:9, pH 6.0/7.4): 2.09
[3]
  Affinity ELISA CPE mutant ratio (1:3, pH 6.0/7.4): 2.5

B8: LC-P095E (antibody, V domains shown)
VH: B1 VH
VL: B1 VL with N51A, P95E
[1]; [4]
  Affinity ELISA CPE mutant ratio (1:3, pH 6.0/7.4): 7.121
  Affinity ELISA CPE mutant ratio (1:9, pH 6.0/7.4): 7.511
[2]
  Affinity ELISA CPE mutant ratio (1:9, pH 6.0/7.4): 7.51
[3]
  Affinity ELISA CPE mutant ratio (1:3, pH 6.0/7.4): 7.12

B9: LC-P095D (antibody, V domains shown)
VH: B1 VH
VL: B1 VL with N51A, P95D
[1]; [4]
  Affinity ELISA CPE mutant ratio (1:3, pH 6.0/7.4): 3.949
  Affinity ELISA CPE mutant ratio (1:9, pH 6.0/7.4): 2.889
[2]
  Affinity ELISA CPE mutant ratio (1:9, pH 6.0/7.4): 2.89
[3]
  Affinity ELISA CPE mutant ratio (1:3, pH 6.0/7.4): 3.95

B10: LC-L096G (antibody, V domains shown)
VH: B1 VH
VL: B1 VL with N51A, L96G
[1]; [4]
  Affinity ELISA CPE mutant ratio (1:3, pH 6.0/7.4): 2.165
  Affinity ELISA CPE mutant ratio (1:9, pH 6.0/7.4): 2.436
[2]
  Affinity ELISA CPE mutant ratio (1:9, pH 6.0/7.4): 2.44
[3]
  Affinity ELISA CPE mutant ratio (1:3, pH 6.0/7.4): 2.17

B11: LC-H091I (antibody, V domains shown)
VH: B1 VH
VL: B1 VL with N51A, H91I
[1]; [4]
  Affinity ELISA CPE mutant ratio (1:3, pH 6.0/7.4): 1.550
  Affinity ELISA CPE mutant ratio (1:9, pH 6.0/7.4): 2.154
[2]
  Affinity ELISA CPE mutant ratio (1:9, pH 6.0/7.4): 2.15
[3]
  Affinity ELISA CPE mutant ratio (1:3, pH 6.0/7.4): 1.55

B12: LC-P095H (antibody, V domains shown)
VH: B1 VH
VL: B1 VL with N51A, P95H
[1]; [4]
  Affinity ELISA CPE mutant ratio (1:3, pH 6.0/7.4): 2.504
  Affinity ELISA CPE mutant ratio (1:9, pH 6.0/7.4): 2.754
[2]
  Affinity ELISA CPE mutant ratio (1:9, pH 6.0/7.4): 2.75
[3]
  Affinity ELISA CPE mutant ratio (1:3, pH 6.0/7.4): 2.5

B13: LC-H091F (antibody, V domains shown)
VH: B1 VH
VL: B1 VL with N51A, H91F
[1]; [4]
  Affinity ELISA CPE mutant ratio (1:3, pH 6.0/7.4): 1.603
  Affinity ELISA CPE mutant ratio (1:9, pH 6.0/7.4): 2.116
[2]
  Affinity ELISA CPE mutant ratio (1:9, pH 6.0/7.4): 2.12
[3]
  Affinity ELISA CPE mutant ratio (1:3, pH 6.0/7.4): 1.6

B14: LC-A051P (antibody, V domains shown)
VH: B1 VH
VL: B1 VL with N51P
[1]; [4]
  Affinity ELISA CPE mutant ratio (1:3, pH 6.0/7.4): 1.920
  Affinity ELISA CPE mutant ratio (1:9, pH 6.0/7.4): 1.569
[2]
  Affinity ELISA CPE mutant ratio (1:9, pH 6.0/7.4): 1.57
[3]
  Affinity ELISA CPE mutant ratio (1:3, pH 6.0/7.4): 1.92

B15: LC-T097I (antibody, V domains shown)
VH: B1 VH
VL: B1 VL with N51A, T97I
[1]; [4]
  Affinity ELISA CPE mutant ratio (1:3, pH 6.0/7.4): 3.086
  Affinity ELISA CPE mutant ratio (1:9, pH 6.0/7.4): 4.049
[2]
  Affinity ELISA CPE mutant ratio (1:9, pH 6.0/7.4): 4.05
[3]
  Affinity ELISA CPE mutant ratio (1:3, pH 6.0/7.4): 3.09

B16: LC-H091C (antibody, V domains shown)
VH: B1 VH
VL: B1 VL with N51A, H91C
[1]; [4]
  Affinity ELISA CPE mutant ratio (1:3, pH 6.0/7.4): 4.003
  Affinity ELISA CPE mutant ratio (1:9, pH 6.0/7.4): 3.025
[2]
  Affinity ELISA CPE mutant ratio (1:9, pH 6.0/7.4): 3.02
[3]
  Affinity ELISA CPE mutant ratio (1:3, pH 6.0/7.4): 4

B17: HC-S059I (antibody, V domains shown)
VH: B1 VH with S59I
VL: B1 VL with N51A
[1]; [5]
  Affinity ELISA CPE mutant ratio (1:3, pH 6.0/7.4): 30.492
  Affinity ELISA CPE mutant ratio (1:9, pH 6.0/7.4): 2.055
[2]
  Affinity ELISA CPE mutant ratio (1:9, pH 6.0/7.4): 2.06
[3]
  Affinity ELISA CPE mutant ratio (1:3, pH 6.0/7.4): 30.5

B18: LC-P095C (antibody, V domains shown)
VH: B1 VH
VL: B1 VL with N51A, P95C
[1]; [4]
  Affinity ELISA CPE mutant ratio (1:3, pH 6.0/7.4): 2.350
  Affinity ELISA CPE mutant ratio (1:9, pH 6.0/7.4): 2.630
[2]
  Affinity ELISA CPE mutant ratio (1:9, pH 6.0/7.4): 2.63
[3]
  Affinity ELISA CPE mutant ratio (1:3, pH 6.0/7.4): 2.35

B19: LC-P095S (antibody, V domains shown)
VH: B1 VH
VL: B1 VL with N51A, P95S
[1]; [4]
  Affinity ELISA CPE mutant ratio (1:3, pH 6.0/7.4): 2.841
  Affinity ELISA CPE mutant ratio (1:9, pH 6.0/7.4): 3.512
[2]
  Affinity ELISA CPE mutant ratio (1:9, pH 6.0/7.4): 3.51
[3]
  Affinity ELISA CPE mutant ratio (1:3, pH 6.0/7.4): 2.84

B20: LC-H091L (antibody, V domains shown)
VH: B1 VH
VL: B1 VL with N51A, H91L
[1]; [4]
  Affinity ELISA CPE mutant ratio (1:3, pH 6.0/7.4): 2.798
  Affinity ELISA CPE mutant ratio (1:9, pH 6.0/7.4): 2.081
[2]
  Affinity ELISA CPE mutant ratio (1:9, pH 6.0/7.4): 2.08
[3]
  Affinity ELISA CPE mutant ratio (1:3, pH 6.0/7.4): 2.8

B21: LC-H091Q (antibody, V domains shown)
VH: B1 VH
VL: B1 VL with N51A, H91Q
[1]; [4]
  Affinity ELISA CPE mutant ratio (1:3, pH 6.0/7.4): 1.770
  Affinity ELISA CPE mutant ratio (1:9, pH 6.0/7.4): 2.010
[2]
  Affinity ELISA CPE mutant ratio (1:9, pH 6.0/7.4): 2.01
[3]
  Affinity ELISA CPE mutant ratio (1:3, pH 6.0/7.4): 1.77
